Test results published in the supplement of paper PMC3353916.
± gives the standard deviation of the averaged measurements.

System: Sindbis virus TE/5'2J-GFP
Experiment: percent infected (GFP+ in RFP+ ISG-expressing cells); higher = more infection (less antiviral activity)
Procedure: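 Confirmatory testing of 87 ISGs. Triplicate wells of BHK/HA-Zeo (control) or BHK/NZAP-Zeo (ZAP) cells were transduced with lentiviruses co-expressing a human ISG plus TagRFP, then infected 48 h later with SINV TE/5'2J-GFP (moi 5). The % GFP+ cells among RFP+ cells was measured by flow cytometry at 8 h post infection. Fluc lentivirus served as control. Three independent experiments.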

[1] = experiment: confirmatory screen 1, BHK/HA-Zeo (control)
[2] = experiment: confirmatory screen 1, BHK/NZAP-Zeo (ZAP)
[3] = experiment: confirmatory screen 2, BHK/HA-Zeo (control)
[4] = experiment: confirmatory screen 2, BHK/NZAP-Zeo (ZAP)
[5] = experiment: confirmatory screen 3, BHK/HA-Zeo (control)
[6] = experiment: confirmatory screen 3, BHK/NZAP-Zeo (ZAP)
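Also: Interferon-defective BHK-21 derivatives, ZAP line overexpressing the rat ZAP N-terminal zinc finger domain fused to Zeocin resistance, GFP scored within live singlet TagRFP+ cells.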

Substance	percent infected [1]	percent infected [2]	percent infected [3]	percent infected [4]	percent infected [5]	percent infected [6]
MTTEQRRSLQAFQDYIRKTLDPTYILSYMAPWFREEEVQYIQAEKNNKGPMEAATLFLKFLLELQEEGWFRGFLDALDHAGYSGLYEAIESWDFKKIEKLEEYRLLLKRLQPEFKTRIIPTDIISDLSECLINQECEEILQICSTKGMMAGAEKLVECLLRSDKENWPKTLKLALEKERNKFSELWIVEKGIKDVETEDLEDKMETSDIQIFYQEDPECQNLSENSCPPSEVSDTNLYSPFKPRNYQLELALPAMKGKNTIICAPTGCGKTFVSLLICEHHLKKFPQGQKGKVVFFANQIPVYEQQKSVFSKYFERHGYRVTGISGATAENVPVEQIVENNDIIILTPQILVNNLKKGTIPSLSIFTLMIFDECHNTSKQHPYNMIMFNYLDQKLGGSSGPLPQVIGLTASVGVGDAKNTDEALDYICKLCASLDASVIATVKHNLEELEQVVYKPQKFFRKVESRISDKFKYIIAQLMRDTESLAKRICKDLENLSQIQNREFGTQKYEQWIVTVQKACMVFQMPDKDEESRICKALFLYTSHLRKYNDALIISEHARMKDALDYLKDFFSNVRAAGFDEIEQDLTQRFEEKLQELESVSRDPSNENPKLEDLCFILQEEYHLNPETITILFVKTRALVDALKNWIEGNPKLSFLKPGILTGRGKTNQNTGMTLPAQKCILDAFKASGDHNILIATSVADEGIDIAQCNLVILYEYVGNVIKMIQTRGRGRARGSKCFLLTSNAGVIEKEQINMYKEKMMNDSILRLQTWDEAVFREKILHIQTHEKFIRDSQEKPKPVPDKENKKLLCRKCKALACYTADVRVIEECHYTVLGDAFKECFVSRPHPKPKQFSSFEKRAKIFCARQNCSHDWGIHVKYKTFEIPVIKIESFVVEDIATGVQTLYSKWKDFHFEKIPFDPAEMSK [DDX58]	38 ± 4.1%	4.81 ± 4.5%	96.53 ± 0.19%	89.2 ± 2.2%	75.6 ± 6%	23.2 ± 3.1%
PCTK2	97.15 ± 0.48%	70.7 ± 3.2%	96.52 ± 0.12%	94.42 ± 0.39%	83.84 ± 0.21%	86.8 ± 1.1%
PDK1	94.39 ± 0.65%	65.7 ± 2.9%	95.24 ± 0.62%	95.39 ± 0.19%	93.83 ± 0.42%	93.94 ± 0.33%
PRIC285	94.6 ± 2.5%	53.7 ± 6.2%	96.59 ± 0.24%	95.01 ± 0.88%	83.7 ± 1.5%	87.13 ± 0.73%
TIMP1	94.88 ± 0.13%	66.4 ± 2.3%	94.66 ± 0.28%	93.37 ± 0.42%	90.3 ± 1.8%	92.63 ± 0.18%
UBE2L6	95.97 ± 0.92%	78.8 ± 2.3%	96.37 ± 0.3%	95.27 ± 0.14%	94.34 ± 0.69%	93.02 ± 0.28%
